How the values were obtained:
PKCδ [1] = assay: Immunohistochemistry for PKCδ in corneal wounds in vivo; design: species or system mouse; conditions: rCAP37 250 ng/ml; sections at 6 hours
Procedure: Mice corneas were wounded using the AlgerBrush II and treated at 0 and 16 hours with vehicle (normal saline; (A-C)) or rCAP37 (250 ng/ml; (D-F)). Whole eye globes were enucleated at 6 hours (A, B, D, E), 16 hours (C, F), and 48 hours (H) post-wounding, and sections were stained for PKCδ. Representative images show constitutive staining for PKCδ in unwounded corneas (G). […] Pronounced staining for PKCδ was seen along the leading wound edge (↓) in CAP37-treated corneas at 6 hours (D, E) and 16 hours (F). […] Scale bars, 100 μm.
Immunohistochemistry: Whole mouse eyes were collected, fixed, embedded, and cut as previously described. Antigen retrieval was performed by treating sections with Rodent Decloaker (BioCare Medical, Concord, Calif.) and steaming them for 20 minutes before cooling with deionized water for 20 minutes. Sections were blocked for 30 minutes in Rodent Blocker M (BioCare Medical, Concord, Calif.), washed three times for 5 minutes per wash in deionized water, and blocked in peroxide block (Cell Marque, Rocklin, Calif.) for 10 minutes. Sections were then washed three times for 5 minutes in deionized water and incubated overnight at 4° C. with rabbit anti-PKCδ (4 μg/ml; Santa Cruz Biotechnology, Inc. Santa Cruz, Calif.). Sections incubated with rabbit IgG (Cell Signaling Technology, Danvers, Mass.) overnight at 4° C. served as controls for nonspecific staining. […]

PKCδ [2] = assay: PKCδ siRNA knockdown and CAP37-induced corneal wound healing in vivo; design: species or system mouse; conditions: CAP37 250 ng/ml
Procedure: (A) siRNA directed against PKCδ or scrambled siRNA was injected into the mouse conjunctiva. The mouse corneal epithelium was removed with the AlgerBrush II. Corneal abrasions were treated at 0 and 16 hours with rCAP37 (250 ng/ml), or were left untreated (saline vehicle control). Wound healing was monitored at 0, 16, and 24 hours using fluorescein staining. Data are represented as the percentage of wound closure and are expressed as mean±SEM. The data are representative of at least 9 mice per group. *P<0.05 by unpaired t-test as compared to vehicle (normal saline) treated controls. The efficiency of the PKCδ knockdown in each cornea was confirmed by Western blot analysis 24 hours post-injection and determined in comparison to the scrambled siRNA-injected corneas. Data are representative of 22 experimental samples and are expressed as mean±SEM (***P<0.0005 by unpaired t-test). […]
siRNA transfection and gene silencing: Stealth RNAi™ (10 μM, Ambion®, Grand Island, N.Y.) directed against PKCδ or Stealth RNAi™ siRNA Negative Control Hi GC (10 μM, Ambion®) was delivered into the mouse conjunctiva through a 5 μl subconjunctival injection using a 33-gauge needle (Hamilton®, Reno, Nev.). […] Wound closure was quantitated at 16 and 24 hours as described. […]
Protein (20 μg) from each sample of corneal homogenate was analyzed by electrophoresis on a 10% SDS-PAGE gel. […]

B1: CAP37: cationic antimicrobial protein of Mr 37 kDa; recombinant CAP37 produced in human embryonic kidney (HEK) 293 cells (protein)
chain: IVGGRKARPRQFPFLASIQNQGRHFCGGALIHARFVMTAASCFQSQNPGVSTVVLGAYDLRRRERQSRQTFSISSMSENGYDPQQNLNDLMLLQLDREANLTSSVTILPLPLQNATVEAGTRCQVAGWGSQRSGGRLSRFPRFVNVTVTPEDQCRPNNVCTGVLTRRGGICNGDGGTPLVCEGLAHGVASFSLGPCGRGPDFFTRVALFRDWIDGVLNNPGP
For B1, the “PKCδ staining of corneal sections, in words” value (PKCδ [1]) was “strong staining for PKCδ”, the “wound healing in response to CAP37, in words” value (PKCδ [2]; corneas transfected with PKCδ siRNA, 16 or 24 hours) was “no significant increase in wound healing” and the “wound closure after CAP37, in words” value (PKCδ [2]; corneas transfected with scrambled siRNA, 24 hours) was “expected increase in wound closure”.
